Reference: patent US20240041976A1, “COMPOSITION AND USE” (priority 2020, published 2024)

How the values were obtained:
S. haemolyticus 4071 = experiment: microbe, parasite or virus in culture; conditions: 4071; for MIC: individual component
Experimental: (§1) Growth inhibition assays were performed in 96-well microtiter plates as described previously (Chi and Holo, 2018, supra). Briefly, 135 μl of TSB were dispensed in each well of a microtiter plate (according to the number of bacterial strains tested) except in the wells of the first row. The antimicrobials were diluted in TSB to working concentrations in a final volume of 285 μl and dispensed in the wells of the first row. The working concentrations were 100 μg/μl for garvicin KS, 10 μg/μl for micrococcin P1 and 1 mg/ml for penicillin G. From the first row, 150 μl of the antimicrobials were then serially diluted (two-fold dilutions) in a sequential fashion until the last row of the plate. Finally, 15 μl of a fresh O/N culture of each strain were added in the appropriate wells to reach a final volume of 150 μl in each well. The plates were then incubated at 37° C. for 24 h. The growth inhibition was expressed as minimum inhibitory concentration (MIC50), which refers to the minimum concentration of the antimicrobial needed to reduce at least 50% of the microbial growth compared to the untreated control. The MIC50 was assessed by optical density readings at 600 nm (O.D.600).
(§2) Synergistic interactions between antimicrobials were determined using the fractional inhibition concentration (FIC). The FIC values were calculated as follows: the sum of the FIC =FICa+FICb+FICc, where the FICa means MIC of A in combination/MIC of A alone, FICb means MIC of B in combination/MIC of B, and FICc means MIC of C in combination/MIC of C alone. Effects were considered as synergistic if FIC was ≤0.5 for two components mixture and ≤0.75 for three components mixture.
(§3) Bacteriocins and antimicrobial assays. […] These bacteriocins were all solubilized in 0.1% (vol/vol) trifluoracetic acid (TFA; Sigma-Aldrich). […] Cell growth inhibition assays and antimicrobial synergy determination was performed in line with Example 1.
(§4) To investigate whether there was synergy between the three bacteriocins (K1-EJ, GarKS and MP1), a checkboard antimicrobial assay was performed. The selected strains were treated for 5, 24 and 48 h with a range of concentrations of K1-EJ, GarKS and MP1 alone or in different combinations.

S. haemolyticus 4070 = experiment: microbe, parasite or virus in culture; conditions: 4070; for MIC: individual component
Experimental: as §1, §2, §3, §4

S. haemolyticus 4073 = experiment: microbe, parasite or virus in culture; conditions: 4073; for MIC: individual component
Experimental: as §1, §2, §3, §4

MRSA USA-300 = experiment: AAMP assay and checkerboard synergy; type: cell-based, Staphylococcus aureus; conditions: MRSA USA-300
Summary of the method: (§5)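 Antimicrobial activity against MRSA determined by AAMP broth dilution; synergy by two-fold checkerboard dilution of two antimicrobials with 25-fold diluted overnight MRSA culture, single agents alone giving MICs. Three-component mix: 100 μg PenG, 50 μg GarKS, 2.5 μg MP1 per well; synergy defined by fractional inhibitory concentration.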

MRSA 43484 = experiment: AAMP assay and checkerboard synergy; type: cell-based, Staphylococcus aureus; conditions: MRSA 43484
Summary of the method: as §5

MRSA ATCC 33591-lux = experiment: AAMP assay and checkerboard synergy; type: cell-based, Staphylococcus aureus; conditions: MRSA ATCC 33591-lux
Summary of the method: as §5

S. aureus LMG3264 = experiment: AAMP assay (MIC), single components and formulation mixture; type: cell-based, Staphylococcus aureus; conditions: LMG3264
Summary of the method: (§6)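 FIC values defined synergy of a PenG/GarKS/MP1 mixture (100 μg, 50 μg, 2.5 μg per well) against single antimicrobials tested on the same plate, with MICs obtained by the AAMP assay.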

S. aureus LMG3266 = experiment: as above; type: cell-based, Staphylococcus aureus; conditions: LMG3266
Summary of the method: as §6

S. aureus LMG3263 = experiment: as above; type: cell-based, Staphylococcus aureus; conditions: LMG3263
Summary of the method: as §6

S. aureus LMG3242 = experiment: as above; type: cell-based, Staphylococcus aureus; conditions: LMG3242
Summary of the method: as §6

S. aureus LMG3314 = experiment: as above; type: cell-based, Staphylococcus aureus; conditions: LMG3314
Summary of the method: as §6

B1: Garvicin KS: three-peptide leaderless bacteriocin (GarA, GarB, GarC; SEQ ID NO:6-8), peptides synthesized (peptide, listed as Lactococcus garvieae)
chain 1: MGAIIKAGAKIVGKGVLGGGASWLGWNVGEKIWK
chain 2: MGAIIKAGAKIIGKGLLGGAAGGATYGGLKKIFG
chain 3: MGAIIKAGAKIVGKGALTGGGVWLAEKLFGGK
MIC of the component in combination (S. haemolyticus 4071; 5 h, GarKS + MP1): 0.68 µg/mL | MIC of the component in combination (S. haemolyticus 4071; 5 h, K1-EJ + GarKS): 1.6 µg/mL | MIC of the component in combination (S. haemolyticus 4071; 5 h, K1-EJ + GarKS + MP1): 0.72 µg/mL | MIC (S. haemolyticus 4071; 5 h): 12.5 µg/mL | MIC of the component in combination (S. haemolyticus 4071; 24 h, GarKS + MP1): 6.3 µg/mL | MIC of the component in combination (S. haemolyticus 4071; 24 h, K1-EJ + GarKS): 12 µg/mL | MIC of the component in combination (S. haemolyticus 4071; 24 h, K1-EJ + GarKS + MP1): 1.6 µg/mL | MIC (S. haemolyticus 4071; 24 h): 51 µg/mL | MIC of the component in combination (S. haemolyticus 4071; 48 h, GarKS + MP1): 6.5 µg/mL | MIC of the component in combination (S. haemolyticus 4071; 48 h, K1-EJ + GarKS): 24 µg/mL | MIC of the component in combination (S. haemolyticus 4071; 48 h, K1-EJ + GarKS + MP1): 3.3 µg/mL | MIC (S. haemolyticus 4071; 48 h): 100 µg/mL | MIC of the component in combination (S. haemolyticus 4070; 5 h, GarKS + MP1): 0.2 µg/mL | MIC of the component in combination (S. haemolyticus 4070; 5 h, K1-EJ + GarKS): 0.72 µg/mL | MIC of the component in combination (S. haemolyticus 4070; 5 h, K1-EJ + GarKS + MP1): 0.32 µg/mL | MIC (S. haemolyticus 4070; 5 h): 12 µg/mL | MIC of the component in combination (S. haemolyticus 4070; 24 h, GarKS + MP1): 3.3 µg/mL | MIC of the component in combination (S. haemolyticus 4070; 24 h, K1-EJ + GarKS): 3.3 µg/mL | MIC of the component in combination (S. haemolyticus 4070; 24 h, K1-EJ + GarKS + MP1): 2.8 µg/mL | MIC (S. haemolyticus 4070; 24 h): 48 µg/mL | MIC of the component in combination (S. haemolyticus 4070; 48 h, GarKS + MP1): 6.3 µg/mL | MIC of the component in combination (S. haemolyticus 4070; 48 h, K1-EJ + GarKS): 6.3 µg/mL | MIC of the component in combination (S. haemolyticus 4070; 48 h, K1-EJ + GarKS + MP1): 5.8 µg/mL | MIC (S. haemolyticus 4070; 48 h): 51 µg/mL | MIC of the component in combination (S. haemolyticus 4073; 5 h, GarKS + MP1): 0.2 µg/mL | MIC of the component in combination (S. haemolyticus 4073; 5 h, K1-EJ + GarKS): 1.7 µg/mL | MIC of the component in combination (S. haemolyticus 4073; 5 h, K1-EJ + GarKS + MP1): 0.33 µg/mL | MIC (S. haemolyticus 4073; 5 h): 12.5 µg/mL | MIC of the component in combination (S. haemolyticus 4073; 24 h, GarKS + MP1): 0.73 µg/mL | MIC of the component in combination (S. haemolyticus 4073; 24 h, K1-EJ + GarKS): 6.3 µg/mL | MIC of the component in combination (S. haemolyticus 4073; 24 h, K1-EJ + GarKS + MP1): 0.78 µg/mL | MIC (S. haemolyticus 4073; 24 h): 51 µg/mL | MIC of the component in combination (S. haemolyticus 4073; 48 h, GarKS + MP1): 0.83 µg/mL | MIC of the component in combination (S. haemolyticus 4073; 48 h, K1-EJ + GarKS): 12 µg/mL | MIC of the component in combination (S. haemolyticus 4073; 48 h, K1-EJ + GarKS + MP1): 1.6 µg/mL | MIC (S. haemolyticus 4073; 48 h): 51 µg/mL | MIC, single antimicrobial (MRSA USA-300): 32 µg/mL | MIC, single antimicrobial (MRSA 43484): 32 µg/mL | MIC, single antimicrobial (MRSA ATCC 33591-lux): 32 µg/mL | MIC, single component (S. aureus LMG3264): 32 µg/mL | MIC, single component (S. aureus LMG3266): 32 µg/mL | MIC, single component (S. aureus LMG3263): 16 µg/mL | MIC, single component (S. aureus LMG3242): 32 µg/mL | MIC, single component (S. aureus LMG3314): 32 µg/mL
